Experimental data as given in patent publication US20210115124A1 (Genentech, published 2021).

T1: human VEGF (hVEGF) (human, UniProt P15692 181-395)
T1 construct: also called VEGF-A
T1 sequence: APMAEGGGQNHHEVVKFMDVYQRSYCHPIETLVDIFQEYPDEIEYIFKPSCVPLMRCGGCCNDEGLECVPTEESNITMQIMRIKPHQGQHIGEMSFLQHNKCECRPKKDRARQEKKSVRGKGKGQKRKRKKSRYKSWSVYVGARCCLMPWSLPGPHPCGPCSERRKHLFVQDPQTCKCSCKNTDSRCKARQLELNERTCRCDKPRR


Each binder was assayed against T1, human VEGF (hVEGF) (assay: SPR single-cycle;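 on Fold change (relative to G6.31): fab variants injected over hVEGF immobilized on a CM5 chip (Biacore T200), threefold dilution series from 0.02 to 50 nM, kinetics fitted with a 1:1 Langmuir model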).
Source text: (§1) To determine the binding affinity of selected Fab variants, SPR measurement with a BIACORE® T200 instrument was used. Briefly, series S sensor chip CM5 was activated with 1-ethyl-3-(3-dimethylaminopropyl) carbodiimide (EDC) and N-hydroxysuccinimide (NHS) reagents according to the supplier's instructions, and human VEGF (hVEGF) was coupled to achieve 50-80 response units (RU), then following by blocking un-reacted groups with 1M ethanolamine.
(§2) Three-fold serial dilutions of Fab in HBS-P buffer (0.01 M HEPES pH 7.4, 0.15 M NaCl, 0.005% surfactant P20) from low (0.02 nM) to high (50 nM) were injected (flow rate: 30 μl/min). The binding responses on hVEGF were corrected by subtracting of RU from a blank flow cell. The sensorgram was recorded and subject to reference and buffer subtraction before evaluating by BIACORE® T200 Evaluation Software (version 2.0). Association rates (kₒₙ) and dissociation rates (koff) were calculated using a simple one-to-one Langmuir binding model. The equilibrium dissociation constant (Kd) was calculated as the ratio koff/kₒₙ.

Binder | Fold change (relative to G6.31) | Kd | koff | kon
G6.31 LC-P59E (Fab, V domains shown, Fab) VH: EVQLVESGGGLVQPGGSLRLSCAASGFTISDYWIHWVRQAPGKGLEWVAGITPAGGYTYYADSVKGRFTISADTSKNTAYLQMNSLRAEDTAVYYCARFVFFLPYAMDYWGQGTLVTVSS VL: DIQMTQSPSSLSASVGDRVTITCRASQDVSTAVAWYQQKPGKAPKLLIYSASFLYSGVESRFSGSGSGTDFTLTISSLQPEDFATYYCQQGYGNPFTFGQGTKVEIK | 1.1 fold | 1.56 nM | 0.000444 s⁻¹ | 284000 M⁻¹ s⁻¹
G6.31 HC-Y58E (Fab, name in Kabat numbering, V domains shown, Fab) VH: EVQLVESGGGLVQPGGSLRLSCAASGFTISDYWIHWVRQAPGKGLEWVAGITPAGGYTEYADSVKGRFTISADTSKNTAYLQMNSLRAEDTAVYYCARFVFFLPYAMDYWGQGTLVTVSS VL: DIQMTQSPSSLSASVGDRVTITCRASQDVSTAVAWYQQKPGKAPKLLIYSASFLYSGVPSRFSGSGSGTDFTLTISSLQPEDFATYYCQQGYGNPFTFGQGTKVEIK | 2.7 fold | 0.62 nM | 0.000508 s⁻¹ | 820000 M⁻¹ s⁻¹
G6.31 LC-S50R (Fab, V domains shown, Fab) VH: EVQLVESGGGLVQPGGSLRLSCAASGFTISDYWIHWVRQAPGKGLEWVAGITPAGGYTYYADSVKGRFTISADTSKNTAYLQMNSLRAEDTAVYYCARFVFFLPYAMDYWGQGTLVTVSS VL: DIQMTQSPSSLSASVGDRVTITCRASQDVSTAVAWYQQKPGKAPKLLIYRASFLYSGVPSRFSGSGSGTDFTLTISSLQPEDFATYYCQQGYGNPFTFGQGTKVEIK | 0.9 fold | 1.89 nM | 0.000464 s⁻¹ | 245000 M⁻¹ s⁻¹
G6.31 LC-T72R (Fab, V domains shown, Fab) VH: EVQLVESGGGLVQPGGSLRLSCAASGFTISDYWIHWVRQAPGKGLEWVAGITPAGGYTYYADSVKGRFTISADTSKNTAYLQMNSLRAEDTAVYYCARFVFFLPYAMDYWGQGTLVTVSS VL: DIQMTQSPSSLSASVGDRVTITCRASQDVSTAVAWYQQKPGKAPKLLIYSASFLYSGVPSRFSGSGSGTDFRLTISSLQPEDFATYYCQQGYGNPFTFGQGTKVEIK | 1.1 fold | 1.53 nM | 0.000446 s⁻¹ | 292000 M⁻¹ s⁻¹
G6.31 LC-G93E (Fab, V domains shown, Fab) VH: EVQLVESGGGLVQPGGSLRLSCAASGFTISDYWIHWVRQAPGKGLEWVAGITPAGGYTYYADSVKGRFTISADTSKNTAYLQMNSLRAEDTAVYYCARFVFFLPYAMDYWGQGTLVTVSS VL: DIQMTQSPSSLSASVGDRVTITCRASQDVSTAVAWYQQKPGKAPKLLIYSASFLYSGVPSRFSGSGSGTDFTLTISSLQPEDFATYYCQQGYENPFTFGQGTKVEIK | 0.3 fold | 5.98 nM | 0.00149 s⁻¹ | 248000 M⁻¹ s⁻¹
G6.31 HC-T77E (Fab, name in Kabat numbering, V domains shown, Fab) VH: EVQLVESGGGLVQPGGSLRLSCAASGFTISDYWIHWVRQAPGKGLEWVAGITPAGGYTYYADSVKGRFTISADTSKNEAYLQMNSLRAEDTAVYYCARFVFFLPYAMDYWGQGTLVTVSS VL: DIQMTQSPSSLSASVGDRVTITCRASQDVSTAVAWYQQKPGKAPKLLIYSASFLYSGVPSRFSGSGSGTDFTLTISSLQPEDFATYYCQQGYGNPFTFGQGTKVEIK | 0.9 fold | 1.93 nM | 0.000477 s⁻¹ | 248000 M⁻¹ s⁻¹
G6.31 HC-T77K (Fab, name in Kabat numbering, V domains shown, Fab) VH: EVQLVESGGGLVQPGGSLRLSCAASGFTISDYWIHWVRQAPGKGLEWVAGITPAGGYTYYADSVKGRFTISADTSKNKAYLQMNSLRAEDTAVYYCARFVFFLPYAMDYWGQGTLVTVSS VL: DIQMTQSPSSLSASVGDRVTITCRASQDVSTAVAWYQQKPGKAPKLLIYSASFLYSGVPSRFSGSGSGTDFTLTISSLQPEDFATYYCQQGYGNPFTFGQGTKVEIK | 7.7 fold | 0.222 nM | 0.00045 s⁻¹ | 2.03e+06 M⁻¹ s⁻¹
G6.31 LC-G57E (Fab, V domains shown, Fab) VH: EVQLVESGGGLVQPGGSLRLSCAASGFTISDYWIHWVRQAPGKGLEWVAGITPAGGYTYYADSVKGRFTISADTSKNTAYLQMNSLRAEDTAVYYCARFVFFLPYAMDYWGQGTLVTVSS VL: DIQMTQSPSSLSASVGDRVTITCRASQDVSTAVAWYQQKPGKAPKLLIYSASFLYSEVPSRFSGSGSGTDFTLTISSLQPEDFATYYCQQGYGNPFTFGQGTKVEIK | 1.7 fold | 0.974 nM | 0.000418 s⁻¹ | 429000 M⁻¹ s⁻¹
G6.31 LC-A51E (Fab, V domains shown, Fab) VH: EVQLVESGGGLVQPGGSLRLSCAASGFTISDYWIHWVRQAPGKGLEWVAGITPAGGYTYYADSVKGRFTISADTSKNTAYLQMNSLRAEDTAVYYCARFVFFLPYAMDYWGQGTLVTVSS VL: DIQMTQSPSSLSASVGDRVTITCRASQDVSTAVAWYQQKPGKAPKLLIYSESFLYSGVPSRFSGSGSGTDFTLTISSLQPEDFATYYCQQGYGNPFTFGQGTKVEIK | 0.6 fold | 2.68 nM | 0.000462 s⁻¹ | 172000 M⁻¹ s⁻¹
G6.31 LC-Y55E (Fab, V domains shown, Fab) VH: EVQLVESGGGLVQPGGSLRLSCAASGFTISDYWIHWVRQAPGKGLEWVAGITPAGGYTYYADSVKGRFTISADTSKNTAYLQMNSLRAEDTAVYYCARFVFFLPYAMDYWGQGTLVTVSS VL: DIQMTQSPSSLSASVGDRVTITCRASQDVSTAVAWYQQKPGKAPKLLIYSASFLESGVPSRFSGSGSGTDFTLTISSLQPEDFATYYCQQGYGNPFTFGQGTKVEIK | 0.1 fold | 11.7 nM | 0.000531 s⁻¹ | 45300 M⁻¹ s⁻¹
G6.31 LC-S77E (Fab, V domains shown, Fab) VH: EVQLVESGGGLVQPGGSLRLSCAASGFTISDYWIHWVRQAPGKGLEWVAGITPAGGYTYYADSVKGRFTISADTSKNTAYLQMNSLRAEDTAVYYCARFVFFLPYAMDYWGQGTLVTVSS VL: DIQMTQSPSSLSASVGDRVTITCRASQDVSTAVAWYQQKPGKAPKLLIYSASFLYSGVPSRFSGSGSGTDFTLTISELQPEDFATYYCQQGYGNPFTFGQGTKVEIK | 3 fold | 0.562 nM | 0.000399 s⁻¹ | 711000 M⁻¹ s⁻¹
G6.31 HC-Y56K (Fab, name in Kabat numbering, V domains shown, Fab) VH: EVQLVESGGGLVQPGGSLRLSCAASGFTISDYWIHWVRQAPGKGLEWVAGITPAGGKTYYADSVKGRFTISADTSKNTAYLQMNSLRAEDTAVYYCARFVFFLPYAMDYWGQGTLVTVSS VL: DIQMTQSPSSLSASVGDRVTITCRASQDVSTAVAWYQQKPGKAPKLLIYSASFLYSGVPSRFSGSGSGTDFTLTISSLQPEDFATYYCQQGYGNPFTFGQGTKVEIK | 1.8 fold | 0.965 nM | 0.000699 s⁻¹ | 724000 M⁻¹ s⁻¹
G6.31 LC-Q27E (Fab, V domains shown, Fab) VH: EVQLVESGGGLVQPGGSLRLSCAASGFTISDYWIHWVRQAPGKGLEWVAGITPAGGYTYYADSVKGRFTISADTSKNTAYLQMNSLRAEDTAVYYCARFVFFLPYAMDYWGQGTLVTVSS VL: DIQMTQSPSSLSASVGDRVTITCRASEDVSTAVAWYQQKPGKAPKLLIYSASFLYSGVPSRFSGSGSGTDFTLTISSLQPEDFATYYCQQGYGNPFTFGQGTKVEIK | 0.9 fold | 1.96 nM | 0.00045 s⁻¹ | 230000 M⁻¹ s⁻¹
G6.31 LC-P40E (Fab, V domains shown, Fab) VH: EVQLVESGGGLVQPGGSLRLSCAASGFTISDYWIHWVRQAPGKGLEWVAGITPAGGYTYYADSVKGRFTISADTSKNTAYLQMNSLRAEDTAVYYCARFVFFLPYAMDYWGQGTLVTVSS VL: DIQMTQSPSSLSASVGDRVTITCRASQDVSTAVAWYQQKEGKAPKLLIYSASFLYSGVPSRFSGSGSGTDFTLTISSLQPEDFATYYCQQGYGNPFTFGQGTKVEIK | 0.1 fold | 17.9 nM | 0.000541 s⁻¹ | 30300 M⁻¹ s⁻¹
G6.31 LC-Y92E (Fab, V domains shown, Fab) VH: EVQLVESGGGLVQPGGSLRLSCAASGFTISDYWIHWVRQAPGKGLEWVAGITPAGGYTYYADSVKGRFTISADTSKNTAYLQMNSLRAEDTAVYYCARFVFFLPYAMDYWGQGTLVTVSS VL: DIQMTQSPSSLSASVGDRVTITCRASQDVSTAVAWYQQKPGKAPKLLIYSASFLYSGVPSRFSGSGSGTDFTLTISSLQPEDFATYYCQQGEGNPFTFGQGTKVEIK | 0.8 fold | 2.07 nM | 0.00103 s⁻¹ | 497000 M⁻¹ s⁻¹
G6.31 LC-T31R (Fab, V domains shown, Fab) VH: EVQLVESGGGLVQPGGSLRLSCAASGFTISDYWIHWVRQAPGKGLEWVAGITPAGGYTYYADSVKGRFTISADTSKNTAYLQMNSLRAEDTAVYYCARFVFFLPYAMDYWGQGTLVTVSS VL: DIQMTQSPSSLSASVGDRVTITCRASQDVSRAVAWYQQKPGKAPKLLIYSASFLYSGVPSRFSGSGSGTDFTLTISSLQPEDFATYYCQQGYGNPFTFGQGTKVEIK | 0.9 fold | 1.8 nM | 0.000489 s⁻¹ | 271000 M⁻¹ s⁻¹

Biological target: T1, human VEGF (hVEGF)
Test: SPR single-cycle
Remark: another data set of the same source
Source text: as §1, §2

Binder | Fold difference (relative to G6.31) | Kd | koff | kon
G6.31 HC-A60M (Fab, name in Kabat numbering, V domains shown, Fab) VH: EVQLVESGGGLVQPGGSLRLSCAASGFTISDYWIHWVRQAPGKGLEWVAGITPAGGYTYYMDSVKGRFTISADTSKNTAYLQMNSLRAEDTAVYYCARFVFFLPYAMDYWGQGTLVTVSS VL: DIQMTQSPSSLSASVGDRVTITCRASQDVSTAVAWYQQKPGKAPKLLIYSASFLYSGVPSRFSGSGSGTDFTLTISSLQPEDFATYYCQQGYGNPFTFGQGTKVEIK | 0.8 fold | 1.89 nM | 0.000729 s⁻¹ | 386000 M⁻¹ s⁻¹
G6.31 HC-I51H (Fab, name in Kabat numbering, V domains shown, Fab) VH: EVQLVESGGGLVQPGGSLRLSCAASGFTISDYWIHWVRQAPGKGLEWVAGHTPAGGYTYYADSVKGRFTISADTSKNTAYLQMNSLRAEDTAVYYCARFVFFLPYAMDYWGQGTLVTVSS VL: DIQMTQSPSSLSASVGDRVTITCRASQDVSTAVAWYQQKPGKAPKLLIYSASFLYSGVPSRFSGSGSGTDFTLTISSLQPEDFATYYCQQGYGNPFTFGQGTKVEIK | 2.5 fold | 0.62 nM | 0.00152 s⁻¹ | 2.48e+06 M⁻¹ s⁻¹
